Laboratory results as given in US20110123533A1.

T1: CD133 (prominin) (human) (UniProt O43490)
T1 sequence (glycosylated (the AC133 epitope is known to be glycosylated), looked up): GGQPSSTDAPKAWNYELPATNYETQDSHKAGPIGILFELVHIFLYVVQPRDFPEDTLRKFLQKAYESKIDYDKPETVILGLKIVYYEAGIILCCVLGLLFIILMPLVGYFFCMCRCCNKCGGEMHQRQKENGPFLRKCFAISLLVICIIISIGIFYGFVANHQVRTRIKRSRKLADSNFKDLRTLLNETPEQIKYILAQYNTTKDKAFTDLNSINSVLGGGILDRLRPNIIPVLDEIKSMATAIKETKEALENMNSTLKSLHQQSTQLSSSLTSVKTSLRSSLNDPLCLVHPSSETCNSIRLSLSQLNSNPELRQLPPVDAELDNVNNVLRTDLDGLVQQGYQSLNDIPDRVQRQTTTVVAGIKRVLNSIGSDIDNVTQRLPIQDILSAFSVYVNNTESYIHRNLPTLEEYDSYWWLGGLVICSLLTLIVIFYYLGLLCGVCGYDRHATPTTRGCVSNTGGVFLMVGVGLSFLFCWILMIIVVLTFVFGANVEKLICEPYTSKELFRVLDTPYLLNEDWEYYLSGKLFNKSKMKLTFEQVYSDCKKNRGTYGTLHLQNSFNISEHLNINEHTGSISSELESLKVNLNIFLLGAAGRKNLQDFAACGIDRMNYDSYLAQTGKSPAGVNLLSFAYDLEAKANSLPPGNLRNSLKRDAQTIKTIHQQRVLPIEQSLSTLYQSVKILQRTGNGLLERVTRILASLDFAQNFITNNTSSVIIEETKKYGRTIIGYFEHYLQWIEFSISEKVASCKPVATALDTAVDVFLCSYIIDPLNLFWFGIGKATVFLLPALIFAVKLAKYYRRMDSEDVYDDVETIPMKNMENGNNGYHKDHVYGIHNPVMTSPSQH


What was measured:
[1] = target: T1, CD133 (prominin) (human); assay: ELISA on membrane fraction of Caco-2 cells
[2] = target: T1, CD133 (prominin) (human); assay: ELISA on membrane fraction from Caco-2 cells
[3] = target: T1, CD133 (prominin) (human); assay: ELISA on plasma membrane fraction of Caco-2 cells; relative equilibrium constant

fold lower relative binding affinity than anti-CD133 monoclonal antibody [1] | fold lower affinity than the monoclonal antibody from which the scFv was derived [2] | Kd [3] | Molecule
2 fold | 3 fold | 155 nM | scFv-AC133
 |  | 83 nM | AC133 mouse monoclonal antibody purified from hybridoma (antibody, from another filing, V domains shown) VH: QVQLQQSGAELVRPGASVKLSCKASGYTFSDFEMHWVKQTPVHGLEWIGDIDPGTGDTAYNLKFKGKATLTTDKSSSTAYMELRSLTSEDSAVYYCTLGAFVYWGQGTLVTVSA VL: DVVVTQTPLSLPVSFGDQVSISCRSSQSLANSYGNTYLSWYLHKPGQSPQLLIYGISNRFSGVPDRFSGSGSGTDFTLKISTIKPEDLGMYYCLQGTHQPYTFGGGTKLEIKR
